This passage reports Kd and stoichiometry N results from publication PMC8545137, “Cryoelectron Microscopy Structures of AdeB Illuminate Mechanisms of Simultaneous Binding and Exporting of Substrates” (mBio, 2021).

One assay addresses CusB (Escherichia coli) (UniProt P77239). Description: ITC. As to conditions: cited from earlier work.
Assay [1] has as its target Acinetobacter baumannii AdeB multidrug efflux pump (Acinetobacter baumannii (AB0057)). The assay can be described thus: cryo-EM structure; AdeB in lipidic nanodiscs (MSP 1E3D1, E. coli total extract lipid; 20 mM Tris-HCl pH 7.5, 100 mM NaCl); 2 uM AdeB-nanodisc incubated with 20 uM ethidium bromide for 2 h; six conformational classes (three apo, three Et-bound) sorted from one sample.

Assay [2] concerns the target T1, AdeB multidrug efflux pump (Acinetobacter baumannii, UniProt Q2FD70). Description: fluorescence polarization titration with purified AdeB. Format: binding. Details: full-length.
The target of assay [3] is T1, AdeB multidrug efflux pump. Description: fluorescence polarization Kd with purified AdeB; cryo-EM structures in lipidic nanodiscs (7KGG, 7KGH, 7KGI). Format: binding. Details: full-length; homotrimer.

Sequence of CusA (P38054 whole entry): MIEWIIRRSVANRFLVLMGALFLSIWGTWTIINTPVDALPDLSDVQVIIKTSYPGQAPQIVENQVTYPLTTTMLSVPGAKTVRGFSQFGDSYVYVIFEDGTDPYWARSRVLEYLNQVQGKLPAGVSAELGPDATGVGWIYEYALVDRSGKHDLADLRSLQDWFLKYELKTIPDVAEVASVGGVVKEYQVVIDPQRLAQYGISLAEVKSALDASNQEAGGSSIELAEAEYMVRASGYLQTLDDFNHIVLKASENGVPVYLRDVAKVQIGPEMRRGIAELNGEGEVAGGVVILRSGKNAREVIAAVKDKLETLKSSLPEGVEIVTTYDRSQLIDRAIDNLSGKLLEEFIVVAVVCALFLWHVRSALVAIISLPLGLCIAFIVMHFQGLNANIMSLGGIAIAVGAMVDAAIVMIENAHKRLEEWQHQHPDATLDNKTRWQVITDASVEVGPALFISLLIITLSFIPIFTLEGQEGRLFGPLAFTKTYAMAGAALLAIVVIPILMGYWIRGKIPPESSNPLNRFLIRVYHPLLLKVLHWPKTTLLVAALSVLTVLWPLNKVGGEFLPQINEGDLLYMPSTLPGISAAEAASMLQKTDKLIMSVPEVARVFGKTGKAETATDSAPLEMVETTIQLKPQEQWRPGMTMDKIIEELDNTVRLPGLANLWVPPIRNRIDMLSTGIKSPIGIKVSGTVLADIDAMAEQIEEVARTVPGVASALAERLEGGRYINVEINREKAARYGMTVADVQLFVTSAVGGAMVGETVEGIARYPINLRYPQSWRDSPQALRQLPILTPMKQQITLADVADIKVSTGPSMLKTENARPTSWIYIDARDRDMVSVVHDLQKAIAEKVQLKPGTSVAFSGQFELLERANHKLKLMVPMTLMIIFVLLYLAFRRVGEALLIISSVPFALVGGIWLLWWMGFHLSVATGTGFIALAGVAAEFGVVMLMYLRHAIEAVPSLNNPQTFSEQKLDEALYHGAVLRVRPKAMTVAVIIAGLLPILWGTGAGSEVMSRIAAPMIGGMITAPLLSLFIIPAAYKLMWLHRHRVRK

As for CusA (from UniProt P38054), the Kd in the assay with CusB (Escherichia coli) is 5.1 µM.
“Acinetobacter baumannii AdeB multidrug efflux pump (natural protein)”: in assay [1], the stoichiometry N came to 3.
The molecule `CC/N=c1\cc2oc3cc(NCC)c(C)cc3c(-c3ccccc3C(=O)OCC)c-2cc1C` [R6G, rhodamine 6G] came in with a Kd in assay [2] of 3.1 ± 0.1 µM.
The molecule `CC[n+]1c(-c2ccccc2)c2cc(N)ccc2c2ccc(N)cc21` [Et, ethidium bromide] gave a Kd in assay [3] of 2.5 ± 0.1 µM.
